B1: FAM189A2 (parent)
chain: GSEAAVIPLDLGCTQVTQDGDIPN

Variants of: B1
Test: protein stability index of a GFP-peptide fusion (GPS, HEK-293T) (PSI 1-6); higher = more stable
Details: c terminus: a fixed tail appended
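Also: lentivirally expressed fusions sorted by FACS into six bins by GFP to DsRed ratio, PSI derived from sequencing read proportions per bin multiplied by bin number.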

Protein stability index, by site and new letter:
G20: R 4.89, W 4.73, M 4.83, D 5.56, N 5.31, F 4.18, A 5.24
C13: A 5.17, F 5.04, E 5.54, Q 5.71, T 5.48, L 5.46, Y 5.3, I 5.73, M 4.93, G 5.54, N 5.61, D 5.46, S 5.43, V 4.77
L11: W 5.38, R 5.72, V 5.65, Y 5.7, E 5.02, S 5.54, N 5.24, P 5.45, K 5.6, I 5.11, Q 5.33, H 5.75, F 5.39, D 5.77, C 5.25
L9: R 5.22, P 5.46, A 4.91, Y 5.31, Q 5.69, G 5.85, V 5.42, D 5.48, K 5.46, T 5.5, N 5.55, F 4.92, H 5.47, C 5.5
G1: Y 4.26, S 5.22, C 4.75, T 5.58, H 5.29, W 4.31, A 5.53, R 5.24, D 5.34, L 5.43, F 4.84, I 4.68, P 5.38, K 5.25, M 5.33, V 5.2
I22: V 5.54, T 5.58, F 5.15, Q 5.31, W 5.34, E 5.53, S 5.64, R 5.22, D 5.64, A 5.72, C 5.67, Y 5.26, P 5.37, M 5.08, K 5.65, G 5.26, N 5.25
V16: H 5.22, E 4.98, F 5.1, T 5.53, N 5.62, S 4.88, W 4.67, P 5.52, K 5.09, Y 5.05, R 5, L 5.06, Q 4.61, D 5.66, A 4.95
N24: L 4.79, D 5.42, V 5.17, G 5.53, I 4.51, A 5.27, C 5.25, S 5.51, E 5.28, M 4.95, R 4.91, Q 5.3, H 5.28
V6: W 4.92, L 5.16, H 5.51, A 5.5, E 5.65, C 5.43, F 4.91, Q 5.33, I 5.25, R 5.57, G 5.33, T 5.58, M 5.25, K 5.71
D19: C 4.4, K 5.19, Q 5.12, M 4.61, V 4.77, T 5.25, N 4.8, H 4.91, Y 4.47, E 5.34, I 4.3, P 5.06
Q15: R 4.17, G 5.46, N 5.75, M 5.27, W 4.11, F 4.8, L 4.12, C 5.31, Y 4.5, T 5.24, D 5.23, I 4.72, E 5.77, P 5.33, A 5.45
A5: F 4.64, T 5.43, H 5.2, W 3.95, Y 4.15, P 5.68, K 5.19, N 5.17, L 4.57, R 5.2, M 5.01, E 5.13, D 5.74, G 5.36, S 5.51
